{
  "source": "paper PMC5190064",
  "target": "integrin αvβ3 expressed on primary human brain endothelial cells (ECs) (human (endogenous in primary brain ECs)) (UniProt P06756)",
  "sequence (P06756 31-1048, chain 1 of 2)": "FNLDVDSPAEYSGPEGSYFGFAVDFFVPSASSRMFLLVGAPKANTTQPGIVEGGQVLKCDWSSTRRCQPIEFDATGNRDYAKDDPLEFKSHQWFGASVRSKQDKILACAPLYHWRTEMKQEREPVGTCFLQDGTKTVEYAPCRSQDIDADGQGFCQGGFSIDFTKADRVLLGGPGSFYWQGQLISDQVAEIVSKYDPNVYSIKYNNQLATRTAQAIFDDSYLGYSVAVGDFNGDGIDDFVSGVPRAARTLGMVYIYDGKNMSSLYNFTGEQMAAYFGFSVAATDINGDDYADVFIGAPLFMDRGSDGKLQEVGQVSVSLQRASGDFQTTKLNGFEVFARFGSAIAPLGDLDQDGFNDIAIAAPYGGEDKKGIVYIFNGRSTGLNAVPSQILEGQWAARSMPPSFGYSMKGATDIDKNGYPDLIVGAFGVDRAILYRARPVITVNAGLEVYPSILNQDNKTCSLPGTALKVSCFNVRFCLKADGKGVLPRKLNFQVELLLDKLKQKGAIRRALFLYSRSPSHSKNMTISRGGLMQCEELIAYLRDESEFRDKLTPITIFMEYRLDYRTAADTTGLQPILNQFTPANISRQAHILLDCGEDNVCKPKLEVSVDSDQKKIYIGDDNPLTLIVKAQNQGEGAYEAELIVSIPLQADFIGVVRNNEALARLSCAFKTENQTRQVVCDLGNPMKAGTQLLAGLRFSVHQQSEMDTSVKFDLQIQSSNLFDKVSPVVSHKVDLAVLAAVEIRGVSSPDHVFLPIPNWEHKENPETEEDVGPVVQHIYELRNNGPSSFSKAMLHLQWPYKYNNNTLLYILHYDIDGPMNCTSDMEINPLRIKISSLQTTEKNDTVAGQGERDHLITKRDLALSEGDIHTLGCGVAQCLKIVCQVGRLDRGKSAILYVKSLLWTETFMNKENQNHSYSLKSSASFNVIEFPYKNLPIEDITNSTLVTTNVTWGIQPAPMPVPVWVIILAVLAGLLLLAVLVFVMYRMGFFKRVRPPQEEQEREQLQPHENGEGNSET",
  "sequence (P05106 27-788, chain 2 of 2, further chain)": "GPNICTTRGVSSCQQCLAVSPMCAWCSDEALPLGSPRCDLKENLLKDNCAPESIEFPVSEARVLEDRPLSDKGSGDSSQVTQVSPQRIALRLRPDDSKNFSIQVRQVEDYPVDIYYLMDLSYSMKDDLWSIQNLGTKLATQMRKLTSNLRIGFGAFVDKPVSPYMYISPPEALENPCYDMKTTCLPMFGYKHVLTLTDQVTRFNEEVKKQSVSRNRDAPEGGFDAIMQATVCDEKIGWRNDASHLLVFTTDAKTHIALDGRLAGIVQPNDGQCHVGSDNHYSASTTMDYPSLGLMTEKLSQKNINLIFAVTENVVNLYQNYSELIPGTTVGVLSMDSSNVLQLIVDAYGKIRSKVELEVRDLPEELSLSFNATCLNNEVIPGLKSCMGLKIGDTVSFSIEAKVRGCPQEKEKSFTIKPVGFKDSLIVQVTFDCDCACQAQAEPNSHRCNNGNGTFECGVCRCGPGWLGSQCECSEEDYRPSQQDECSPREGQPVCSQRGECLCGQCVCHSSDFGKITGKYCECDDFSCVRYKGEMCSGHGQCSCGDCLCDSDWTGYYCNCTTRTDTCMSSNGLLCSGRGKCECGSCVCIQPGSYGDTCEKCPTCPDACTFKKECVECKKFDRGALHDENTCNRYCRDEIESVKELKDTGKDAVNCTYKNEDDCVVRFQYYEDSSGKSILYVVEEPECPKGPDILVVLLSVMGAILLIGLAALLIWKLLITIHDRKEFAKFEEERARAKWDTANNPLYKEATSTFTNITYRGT",
  "data": [
    {"substance": "L1CAM expressed on cancer stem-like cells (CSCs) from glioblastoma (from UniProt P32004 20-1257) (receptor)", "values": [
      {"measurement": "cell-cell adhesion of GFP-CSCs (08387) to a confluent EC monolayer after pre-incubation of ECs with a neutralizing antibody to integrin αvβ3; percent reduction of CSC adhesion", "value": 43, "unit": "%"}
    ]}
  ]
}
